Values quoted from earlier work, collected in article PMC6684861 (Traffic (Copenhagen, Denmark), 2018).

System: mouse embryonic fibroblasts
Details: ref unpublished observations

B1: DNA polymerase λ (protein, UniProt Q9UGP5 1-575, looked up)
DNA polymerase lambda: MDPRGILKAFPKRQKIHADASSKVLAKIPRREEGEEAEEWLSSLRAHVVRTGIGRARAELFEKQIVQHGGQLCPAQGPGVTHIVVDEGMDYERALRLLRLPQLPPGAQLVKSAWLSLCLQERRLVDVAGFSIFIPSRYLDHPQPSKAEQDASIPPGTHEALLQTALSPPPPPTRPVSPPQKAKEAPNTQAQPISDDEASDGEETQVSAADLEALISGHYPTSLEGDCEPSPAPAVLDKWVCAQPSSQKATNHNLHITEKLEVLAKAYSVQGDKWRALGYAKAINALKSFHKPVTSYQEACSIPGIGKRMAEKIIEILESGHLRKLDHISESVPVLELFSNIWGAGTKTAQMWYQQGFRSLEDIRSQASLTTQQAIGLKHYSDFLERMPREEATEIEQTVQKAAQAFNSGLLCVACGSYRRGKATCGDVDVLITHPDGRSHRGIFSRLLDSLRQEGFLTDDLVSQEENGQQQKYLGVCRLPGPGRRHRRLDIIVVPYSEFACALLYFTGSAHFNRSMRALAKTKGMSLSEHALSTAVVRNTHGCKVGPGRVLPTPTEKDVFRLLGLPYREPAERDW
- nuclear/cytosolic ratio in mouse embryonic fibroblasts: 8
